Laboratory results taken from US8304236B2, “Modified biotin-binding protein” (Japan Tobacco Inc., priority 2008, dated 2012).

Tests used:
[1] = Heat stability of protein structure (soluble protein after heating, SDS-PAGE); format: physicochemical; settings: for Thermal stability (temp. at which 50% of protein was lost): heated for 20 minutes
Procedure: 3-8) Heat Stability of HALU TM2 Protein Structure Each of 0.2 μg/μL TM2 mutant solutions (10 μL (2 μg)) was heated at room temperature, 50, 60, 70, 80, 90, or 99° C. for 20 minutes. Then, the solution was centrifuged at 15000 rpm for 10 minutes, and the soluble protein in the supernatant was suspended in the same volume of 2×SDS sample buffer (250 mM Tris-HCl, pH 6.8, 20% 2-mercaptoethanol, 20% SDS, 20% glycerol). The suspension was heated at 95° C. for 10 minutes, followed by SDS-PAGE. The protein bands were detected by CBB staining A standard curve was prepared using a quantitative marker (LMW ELECTROPHORESIS CALIBRATION KIT; Pharmacia Biotech) with Las-3000 (FUJIFILM) to quantify the protein bands.

fibronectin = fibronectin (Homo sapiens, UniProt P02751); test: Non-specific binding to fibronectin (fibronectin-immobilized microplate, biotinylated HRP, A450); settings: absorbance at 450 nm
Chain of fibronectin (P02751 32-2477, species assumed): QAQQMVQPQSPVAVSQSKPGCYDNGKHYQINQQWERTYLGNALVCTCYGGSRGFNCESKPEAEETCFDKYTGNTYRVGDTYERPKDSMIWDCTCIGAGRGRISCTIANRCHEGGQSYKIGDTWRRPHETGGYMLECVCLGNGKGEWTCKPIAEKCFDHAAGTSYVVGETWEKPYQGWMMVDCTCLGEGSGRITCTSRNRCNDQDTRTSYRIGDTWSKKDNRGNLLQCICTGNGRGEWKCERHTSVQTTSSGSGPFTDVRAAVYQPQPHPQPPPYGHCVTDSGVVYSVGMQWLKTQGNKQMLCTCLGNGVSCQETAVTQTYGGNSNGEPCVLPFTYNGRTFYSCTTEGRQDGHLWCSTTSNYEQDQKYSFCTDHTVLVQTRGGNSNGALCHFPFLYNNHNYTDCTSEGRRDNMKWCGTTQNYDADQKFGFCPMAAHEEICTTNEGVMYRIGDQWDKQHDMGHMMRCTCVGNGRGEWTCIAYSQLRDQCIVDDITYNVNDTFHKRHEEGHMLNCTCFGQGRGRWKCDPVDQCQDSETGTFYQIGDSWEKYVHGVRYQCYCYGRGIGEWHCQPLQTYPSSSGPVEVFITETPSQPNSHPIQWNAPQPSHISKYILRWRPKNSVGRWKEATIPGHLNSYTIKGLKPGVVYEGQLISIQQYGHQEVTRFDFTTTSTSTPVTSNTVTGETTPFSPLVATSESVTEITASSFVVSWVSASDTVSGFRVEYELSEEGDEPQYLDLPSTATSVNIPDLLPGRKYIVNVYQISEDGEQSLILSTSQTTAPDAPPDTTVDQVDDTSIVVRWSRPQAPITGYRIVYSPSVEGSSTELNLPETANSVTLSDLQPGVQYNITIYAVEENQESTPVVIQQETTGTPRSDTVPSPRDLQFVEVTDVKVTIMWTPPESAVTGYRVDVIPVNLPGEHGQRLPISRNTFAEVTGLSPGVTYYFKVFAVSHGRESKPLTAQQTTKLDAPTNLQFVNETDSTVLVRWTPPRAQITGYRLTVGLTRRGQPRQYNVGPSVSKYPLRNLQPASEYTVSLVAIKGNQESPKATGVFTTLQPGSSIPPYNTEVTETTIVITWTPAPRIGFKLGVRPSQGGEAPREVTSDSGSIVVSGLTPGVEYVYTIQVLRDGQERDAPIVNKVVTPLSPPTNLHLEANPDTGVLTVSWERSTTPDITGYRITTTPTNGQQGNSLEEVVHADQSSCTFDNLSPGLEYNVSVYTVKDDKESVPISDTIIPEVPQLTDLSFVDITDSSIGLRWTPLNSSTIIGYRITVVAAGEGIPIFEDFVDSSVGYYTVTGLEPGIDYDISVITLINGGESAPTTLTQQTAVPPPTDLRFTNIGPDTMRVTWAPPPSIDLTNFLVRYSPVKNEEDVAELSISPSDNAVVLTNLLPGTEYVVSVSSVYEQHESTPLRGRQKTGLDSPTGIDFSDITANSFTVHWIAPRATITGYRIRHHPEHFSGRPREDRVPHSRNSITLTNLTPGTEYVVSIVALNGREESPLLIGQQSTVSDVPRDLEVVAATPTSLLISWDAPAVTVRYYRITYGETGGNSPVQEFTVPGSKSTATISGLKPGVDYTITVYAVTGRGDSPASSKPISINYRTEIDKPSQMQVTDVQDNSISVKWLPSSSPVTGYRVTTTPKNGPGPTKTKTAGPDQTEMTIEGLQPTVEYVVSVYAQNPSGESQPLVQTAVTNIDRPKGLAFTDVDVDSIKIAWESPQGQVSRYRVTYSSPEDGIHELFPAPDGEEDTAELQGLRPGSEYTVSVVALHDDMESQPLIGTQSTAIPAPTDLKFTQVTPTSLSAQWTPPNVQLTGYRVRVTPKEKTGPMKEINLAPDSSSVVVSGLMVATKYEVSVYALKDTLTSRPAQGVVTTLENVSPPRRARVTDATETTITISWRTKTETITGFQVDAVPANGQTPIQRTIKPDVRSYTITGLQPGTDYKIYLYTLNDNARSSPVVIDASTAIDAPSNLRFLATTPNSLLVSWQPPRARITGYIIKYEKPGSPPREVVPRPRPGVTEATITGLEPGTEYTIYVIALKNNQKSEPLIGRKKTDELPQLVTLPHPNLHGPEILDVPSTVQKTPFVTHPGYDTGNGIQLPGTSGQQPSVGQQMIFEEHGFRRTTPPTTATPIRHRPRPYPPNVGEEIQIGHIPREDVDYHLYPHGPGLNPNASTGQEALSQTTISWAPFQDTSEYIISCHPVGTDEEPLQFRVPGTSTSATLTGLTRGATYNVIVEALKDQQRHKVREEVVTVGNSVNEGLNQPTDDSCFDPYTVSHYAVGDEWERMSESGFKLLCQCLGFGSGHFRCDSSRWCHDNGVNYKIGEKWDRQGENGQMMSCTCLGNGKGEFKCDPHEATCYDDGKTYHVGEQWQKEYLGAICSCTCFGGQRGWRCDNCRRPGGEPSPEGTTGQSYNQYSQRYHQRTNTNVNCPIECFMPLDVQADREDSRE
Procedure: The fibronectin-binding of each low-pI TM2 was compared using a microplate to which fibronectin was immobilized. The concentration of fibronectin was adjusted to 50 μg/mL with a fixation solution exclusive for a New ELISA plate, and the fibronectin solution (50 μL) was added to each New ELISA plate (Sumitomo Bakelite), followed by shaking at 37° C. for 4 hours for immobilization. Then, the plate was washed with 0.1% Triton X-100-containing PBS (300 μL) three times and was then dried naturally.
TM2, K26A, K73Q, R104E, K141E, and R104EK141E mutants (50 μL each) were each added to the corresponding well of the plate and left at room temperature for 1 hour. The plate was washed with 300 μL/well of PBST (PBS buffer containing 0.1% Tween 20) three times. Then, biotinylated HRP diluted 5000 times with PBST containing 0.5% BSA was added at 50 μL/well and allowed to react with the mutant at room temperature for 1 hour. After washing with 300 μL/well of PBST three times, 50 μL/well of 1-Step Ultra TMB-ELISA solution was added to each well for color development. After termination of the color development with 50 μL/well of 2M sulfuric acid, absorbance at 450 nm was measured with an Infinite 200 microplate reader.
Non-specific binding of HALU TM2 to fibronectin was also investigated as in paragraph 1-10) of Example 1.

[2] = Biotin-binding test (Biacore 3000, biotin-LC-BSA immobilized)
Procedure: High-purity BSA (Sigma, 2 mg) and NHS-LC-biotin (Pierce, 1 mg) were dissolved in 50 mM sodium borate (pH 8.0, 1 mL) and were incubated at 4° C. for 2 hours. The solution was put into a dialysis tube (MWCO 6-8,000) and was dialyzed with 50 mM sodium carbonate (pH 6.7) at 4° C. overnight. The resulting biotin-LC-BSA conjugate (MW: 67 kDa, 30 μM) was used as a ligand for a Biacore (registered trademark) biosensor.
Biotin-LC-BSA and BSA serving as a negative control were immobilized on CM5 sensor chips by amine coupling method. The amount for immobilization was adjusted to about 200 RU. The chips to which BSA was immobilized were disposed in flow cells 1 and 3, while the chips to which biotin-LC-BSA was immobilized were disposed in flow cells 2 and 4.
Accordingly, seven step measurement (3.125, 6.25, […], 25, 50, 100, and 200 nM) was conducted from the lowest concentration, without recycling steps. The data of BSA as reference was deducted from the data of BSA-LC-biotin. The measurement was performed at 25° C. The resulting sensorgrams were subjected to reaction kinetics analysis using analysis software BIAevaluation ver. 4.1 with a 1:1 binding model to calculate the binding rate constant (ka) and the dissociation rate constant (kd). The dissociation constant (KD) was determined from kd/ka. In the case where no recycling step is employed, the Rmax (maximum amount of binding analyte) decreases at each measurement. Accordingly, in the analysis, the Rmax was calculated by conducting local fitting for each concentration, and only the data of analyte concentrations that were approximated to the 1:1 binding model was employed.
TM2 and HALU TM2 used as analytes were prepared by purification with 2-iminobiotin agarose in accordance with a common method and dialysis with 20MM KPi (pH 7) overnight. The analytes were each adjusted to about 50 μg/mL in 10 mM acetate buffer (pH 5, Biacore).
The immobilization of the ligand and measurement and analysis of specific interaction with the analytes were conducted as in paragraph 2-7-2).

human serum protein = test: Non-specific adsorption of serum protein to HALU TM2-immobilized magnetic beads; format: binding; settings: human serum diluted 800 times, anti-human IgG detection
Procedure: In this Example, non-specific adsorption of serum protein to HALU TM2-immobilized magnetic beads was investigated.
TM2 D40NR104E and TM2 D40NR104EK141E were bonded covalently to magnetic beads (Dynabeads M-270 Carboxylic Acid, Dynal) by the process described in paragraph 1-9) of Example 1, and the amount of human serum protein adsorbed to the beads was measured. The amount of each HALU TM2 immobilized to the magnetic beads was adjusted to 10 μg/100 μL beads. Human serum (CHEMICON) was diluted 800 times with a PBS buffer, and the HALU TM2-immobilized magnetic beads (50 μL) to which a certain amount of protein was immobilized were added to the diluted human serum, followed by mixing by turning the tube containing the beads upside down at room temperature for 15 minutes. The magnetic beads were washed with a PBS buffer containing 0.1% Tween 20 (PBST, 500 μL) four times and were then subjected to antigen-antibody reaction at room temperature for 15 minutes with HRP-labeled anti-human IgG mouse antibody (100 μL) diluted 5000 times with PBST containing 0.5% BSA. Subsequently, the beads were washed with PBST (500 μL) five times, followed by color development with 1-Step Ultra TMB-ELISA (100 μL). After termination of the color development with 2M sulfuric acid (100 μL), the magnetic beads were collected with a magnet. The absorbance at 450 nm of the supernatant was measured with an Infinite 200 microplate reader.

B1: TM2: wild type tamavidin 2, biotin-binding protein from Pleurotus cornucopiae, amino acid sequence SEQ ID NO: 2 (protein, listed as Pleurotus cornucopiae)
chain: MSDVQSSLTGTWYNELNSKMELTANKDGTLTGKYLSKVGDVYVPYPLSGRYNLQPPAGQGVALGWAVSWENSKIHSATTWSGQFFSESSPVILTQWLLSSSTARGDVWESTLVGNDSFTKTAPTEQQIAHAQLHCRAPRLK
- Thermal stability (temp. at which 50% of protein was lost) [1]: 87.5 °C
- Thermal stability (temp. at which 50% of protein was lost) ([1]; listed as TM2WT): 86 °C
- Binding of fibronectin (A450) (fibronectin; listed as wild type TM2): 1.3 to 1.4
- dissociation from biotin-LC-BSA ([2]; dissociation monitored for 60 minutes): not dissociated
- Non-specific binding to serum protein (A450) (human serum protein): 0.67

B2: TM2 D40NR104EK141E: TM2 mutant having mutation of D40N and R104EK141E; SEQ ID NO: 24 (protein)
chain: MSDVQSSLTGTWYNELNSKMELTANKDGTLTGKYLSKVGNVYVPYPLSGRYNLQPPAGQGVALGWAVSWENSKIHSATTWSGQFFSESSPVILTQWLLSSSTAEGDVWESTLVGNDSFTKTAPTEQQIAHAQLHCRAPRLE
modifications: Synthetic TM2 D40NR104EK141E
- protein remained after heating ([1]; heated at 99° C. for 20 minutes): 78%
- Thermal stability (temp. at which 50% of protein was lost) [1]: 99 °C or
- Binding of fibronectin (A450) (fibronectin): extremely low
- Binding of fibronectin (A450) (fibronectin; listed as D40NR104EK141E): 0.12
- ka ([2]; Biotin-BSA (22.4 Å)): 1.5 × 10^6
- kd ([2]; Biotin-BSA (22.4 Å), values in parentheses): (1.4 × 10^−8)
- Non-specific binding to serum protein (A450) (human serum protein): low
- Non-specific binding to serum protein (A450) (human serum protein; listed as D40NR104EK141E): 0.45
